{
  "source": "paper PMC1839085",
  "about": "“Crystal structures of an Extracytoplasmic Solute Receptor from a TRAP transporter in its open and closed forms reveal a helix-swapped dimer requiring a cation for α-keto acid binding” (BMC Structural Biology, 2007)",
  "key": {"[1]": {"biological_target": "the molecule itself", "assay": "crystal structure; unliganded SeMet TakP, space group P2(1), four molecules in the asymmetric unit; hanging drop, 293 K, 100 mM sodium citrate pH 5.8-6.0, 1.4-1.6 M ammonium sulfate; solved by MAD"}, "[2]": {"biological_target": "the molecule itself", "assay": "SEC; gel filtration on Superdex 200 26/60 in 20 mM Tris HCl pH 8.0, 50 mM NaCl, calibrated with commercial standards"}, "[3]": {"biological_target": "the molecule itself", "assay": "cross-linking; 3.2 and 6.3 μM TakP with 50 mM glutaraldehyde, 20 mM Na2HPO4/KH2PO4 pH 7.8, 18°C, 3 hours; denaturing 10% Nu-PAGE gel; dimer to monomers"}},
  "data": [
    {"protein": "Selenomethionine-labeled TakP from Rhodobacter sphaeroides (natural protein, Rhodobacter sphaeroides 2.4.1, selenomethionine (SeMet) labeled, TakP (previously named SmoM), Rhodobacter sphaeroides 2.4.1; same construct as m1 (pET101/D-TOPO, 1099 bp fragment), labeled with selenomethionine; final model holds four molecules from residue 28 or 32 to 365; Same construct as m1, with methionines replaced by selenomethionine; used for the unliganded MAD structure (PDB 2HZK); also called SeMet TakP; selenomethionine labeled protein; source: E. …) QSAPKVTWRLASSFPKSLDTIFGGAEVLSKMLSEATDGNFQIQVFSAGELVPGLQAADAVTEGTVECCHTVGYYYWGKDPTFALAAAVPFSLSARGINAWHYHGGGIDLYNEFLSQHNIVAFPGGNTGVQMGGWFRREINTVADMQGLKMRVGGFAGKVMERLGVVPQQIAGGDIYPALEKGTIDATEWVGPYDDEKLGFFKVAPYYYYPGWWEGGPTVHFMFNKSAYEGLTPTYQSLLRTACHAADANMLQLYDWKNPTAIKSLVAQGTQLRPFSPEILQACFEAANEVYAEMEASNPAFKKIWDSIKAFRSEHYTWAQIAEYNYDTFMMVQQNAGKL", "values": [
      {"measurement": "binding result", "setting": "[1]", "result": "binds"}
    ]},
    {"protein": "TakP (TRAP transporter alpha-keto acid binding P subunit) from Rhodobacter sphaeroides (natural protein, Rhodobacter sphaeroides 2.4.1, TakP (previously named SmoM), extracytoplasmic solute receptor (P subunit) of a TRAP transporter, Rhodobacter sphaeroides 2.4.1; gene amplified from genomic DNA as a 1099 bp fragment and cloned into pET101/D-TOPO; crystal models span residues 28 or 32 to 365; The 1099 bp fragment would fit the whole gene of 365 codons, so the signal peptide may be in the construct; The theoretical molecular …) QSAPKVTWRLASSFPKSLDTIFGGAEVLSKMLSEATDGNFQIQVFSAGELVPGLQAADAVTEGTVECCHTVGYYYWGKDPTFALAAAVPFSLSARGINAWHYHGGGIDLYNEFLSQHNIVAFPGGNTGVQMGGWFRREINTVADMQGLKMRVGGFAGKVMERLGVVPQQIAGGDIYPALEKGTIDATEWVGPYDDEKLGFFKVAPYYYYPGWWEGGPTVHFMFNKSAYEGLTPTYQSLLRTACHAADANMLQLYDWKNPTAIKSLVAQGTQLRPFSPEILQACFEAANEVYAEMEASNPAFKKIWDSIKAFRSEHYTWAQIAEYNYDTFMMVQQNAGKL", "values": [
      {"measurement": "stoichiometry N", "setting": "[2]", "result": 2},
      {"measurement": "Kd", "setting": "[3]", "result": "< 300", "unit": "nM"}
    ]}
  ]
}
